Assay results as given in US6861578B1, “Method for plant protection against insects or nematodes by transformation with a nucleic acid encoding equistatin” (Plant Research International B.V., priority 1997, dated 2005).

Columns and labels:
cathepsin D = cathepsin D (Homo sapiens, UniProt P07339); assay: Cathepsin D inhibition, steady-state hydrolysis of chromophoric substrate; active site titration; assay type: biochemical
Experimental: Residual activity is expressed as percent of control activity in samples containing no inhibitor.
The kinetics of binding of equistatin to cathepsin D was performing using a synthetic substrate which contains a chromophore, such as a nitrophenylalanine residue, in the P1′ position. The assay sensitivity, afforded by H-Pro-Thr-Glu-Phe*Nph-Arg-Leu-OH (SEQ ID NO:8) as substrate, alowed us to use 6.4 nM concentration of the enzyme as a minimal concentration in the test.

papain = target: T1, papain (Carica papaya, UniProt P00784); assay: Stoichiometry and inhibition constant of recombinant equistatin with papain (Z-Phe-Arg-pNA, microtiterplate); assay type: biochemical
T1 sequence (P00784 134-345): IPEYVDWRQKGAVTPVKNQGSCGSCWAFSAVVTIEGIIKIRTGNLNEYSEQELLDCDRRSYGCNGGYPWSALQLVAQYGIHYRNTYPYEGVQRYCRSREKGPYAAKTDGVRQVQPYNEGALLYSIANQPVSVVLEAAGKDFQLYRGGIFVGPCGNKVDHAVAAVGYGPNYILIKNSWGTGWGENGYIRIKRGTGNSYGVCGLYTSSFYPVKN
Experimental: In a microtiterplate 20 μl papain solution (a fresh solution of 1 mg/ml (Sigma) in MES buffer titrated with E-64 to determine the active fraction, usually 17%) is combined with 0-80 μl of known protein concentration. MES buffer (50 mM MES, pH 6.5; 0.6 mg/ml L-cysteine; 1 mg/ml BSA fraction V) is added to a final volume of 150 μl. The mixture is incubated for 30 min at room temperature and subsequently 50 μl of substrate solution (60 μl of 15 mg/ml Z-Phe-Arg-pNA dissolved in methanol is diluted in 940 μl MES buffer before use). The plate is immediately placed in the nicrotiterplate reader and measured at 405 nm. Readings up to an OD600 of 0.3 are linear. Rates of change are used to determine the activity with increasing amounts of inhibitor. Results are graphically represented and at stoichiometric concentrations the amount of dissociated complex is determined to determine the apparent equilibrium dissociation constant (Ki). […] The apparent equilibrium dissociation constant for papain was estimated to be 0.6 nM in agreement with the data published for the purified protein (Lenarcic et al. (1997) J. Biol. Chem. 272: 13899-13903.

[1] = system: endoprotease activity of Colorado potato beetle larval gut extracts; assay: Broad spectrum endoprotease activity of Colorado potato beetle gut extract, Z-Phe-Arg-pNA; assay type: biochemical, Leptinotarsa decemlineata
From the text: Guts of final instar Colorado potato beetle larvae reared on methyl jasmonate induced plants were isolated and extracted essentially as described (Bolter and Jongsma, J. Insect Physiol. 41: 1071-1078). In these gut extracts the proteases that are sensitive to the protease inhibitors of potato are already complexed. The residual protease activity is composed of potato protease-inhibitor-insensitive proteases which were induced in response to the methyl jasmonate induced potato inhibitors. These proteases are the proteases that render the beetle larvae insensitive to protease inhibitor defense of the potato plant. Wle tested a broad range of different cysteisie protease inhibitors for activity specifically against these induced potato protease inhibitor-insensitive cysteine protesses. Nearly all of these inhibitors were purified at the Jozef Stefan Institute in Slovenia. Testing their potential against Colorado potato beetle was done using both general protein substrates (azocasein, table 2) as well as specific synthetic substrates (L-Arg-pNA, table 3; pGlu-Phe-Leu-pNA, table 4; Z-Phe-Arg-pNA, table 5; Z-Arg-Arg-pNA, table 6). In specific cases inhibitors were tested at two concentrations, eauimolar and in excess to the protease, in order to obtain an indication of the tightness of the complex. […] Importantly, this class of inhibitors was capable of inhibiting nearly all general cysteine protease activity. The equistatin peptide molecule and a functional derivative thereof were not very active against the aminopeptidase-like cysteine protease activity. […] The best combination of inhibitors for full toxicity against the Colorado potato beetle would therefore be a combination of equistatin or p41 invariant chain fragment and stefin-like inhibitors.

thrips protease activity = assay: Protease activity of adult western flower thrips extract, FITC-hemoglobin; assay type: biochemical, Frankliniella occidentalis; design: inhibition of protease activity: concentration or dose not given beside the values
Experimental: Adult western flower thrips (Frankliniella occidentalis) and leafmirer flies (Liriomyza trifolii) adult were harvested from a culture maintained on chrysanthemum plants and complete thrips and flies were homogenized in extraction on buffer (200 mM β-alanine-HCl, pH 3.5) in a volume of 5 times the weight of the insects. The buffer pH was at the previously determined pH optimum of protease activity towards hemoglobin. Final instar Colorado potato beetle larvae maintained on potato plants as described in example 5 were checked for gut aspartic protease activity by preparing a total gut extract in pH 3 buffer which is optimal for Colorado potato beetle aspartic proteases (200 mM glycine, pH 3). Guts were homogenized in 100 μl buffer per gut. Third instar western corn rootworm larvae maintained on corn roots were used to remove the guts. Ten guts were homogenized in 100 μl water and spinned twice to remove insoluble material. Two types of buffers were used in the enzymatic assay. One with a pH presumably favoring cysteine proteases (50 mM MES, pH 6.5; 0.6 mg/ml L-cysteine) and one for detecting aspartic proteases (200 mM glycine, pH 3). Supernatants were stored at −20° C.
2 μl gut extract was combined with 2 μl inhibitor (2 mM pepstatin in methanol, 4 mM E64 in water, 2 mg/ml recombinant equistatin in water. The concentration of the other proteinaceous inhibitors was not known exactly). Appropriate buffers were added to a final volume of 100 μl. After 15′ preincubation 20 μl substrate (5 mg/ml FITC-hemoglobin) was added and incubated for 30-45 min at 37 C.
Reaction was stopped by the addition of 100 μl 10% TCA. Tubes were centrifuged and 100 μl supernatant mixed with 100 μl 10 N NaOH was measured on a fluorimeter for the extent of hemoglobin hydrolysis. Measurements were done in duplicate on one (thrips, leafminer and western corn rootworm), or three (Colorado potato beetle) different gut extracts and varied by a maximum of +/−5%.

thrips females = assay: Oviposition rate of thrips females in Murai cages; assay type: in vivo, Frankliniella occidentalis
Experimental: A sample of 142 μM recombinant equistatin purified as described in example 4 was assayed for activity towards thrips. Sample was acidified with HCl to pH 3 to stabilize the equistatin protein. Controls contained acidified water or 2.5 mg/ml BSA dissolved in acidified water. The oviposition rate of thrips females was assayed using so-called Murai cages. Briefly, perspex tubes closed on side with a fine gauze were inoculated with 10 females and bee pollen. Tubes were closed with parafilm and 300 μl fluid was placed on top of the parafilm. A second layer of parafilm enclosed the fluid. Pollen and sample fluid were replaced every day for two days. Eggs deposited in the liquid sample were counted on day 2.

Chain of cathepsin D (P07339 65-412, species assumed): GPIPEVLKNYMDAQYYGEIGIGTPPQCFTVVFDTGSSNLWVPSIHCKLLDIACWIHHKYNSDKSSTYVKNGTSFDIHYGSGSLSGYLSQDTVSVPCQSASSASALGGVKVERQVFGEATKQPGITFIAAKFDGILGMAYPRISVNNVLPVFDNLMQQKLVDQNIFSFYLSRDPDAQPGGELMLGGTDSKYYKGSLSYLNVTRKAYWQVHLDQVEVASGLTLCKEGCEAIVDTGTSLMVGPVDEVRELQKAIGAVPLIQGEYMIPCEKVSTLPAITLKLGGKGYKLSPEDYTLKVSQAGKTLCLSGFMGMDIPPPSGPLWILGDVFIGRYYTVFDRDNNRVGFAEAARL

B1: equistatin: cysteine/aspartic protease inhibitor from sea anemone Actinia equina with three type I repeated thyroglobulin domains; purified or recombinant from E. coli (protein)
chain: SLTKCQQLQASANSGLIGTYVPQCKETGEFEEKQCWGSTGYCWCVDEDGKEILGTKIRGSPDCSRRKAALTLCQMMQAIIVNVPGWCGPPSCKADGSFDEVQCCASNGECYCVDKKGKELEGTRQQGRPTCERHLSECEEARIKAHSNSLRVEMFVPECLEDGSYNPVQCWPSTGYCWCVDEGGVKVPGSDVRFKRPTC
modifications: left off: large carriers; small tags and cut ends
notes: purified or recombinant from E. coli
Ki (cathepsin D; cathepsin D, steady state velocity, chromophoric substrate): 0.3 nM
equistatin needed for the saturation of 1 mol of cathepsin D (cathepsin D; titration of cathepsin D with equistatin (FIG. 12)): 1 mol
molecules of papain inhibited by one molecule of equistatin (papain): approximately 1 molecule
% of residual activity, equimolar ([1]; equimolar): 30%
% of residual activity, excess inhibitor ([1]; excess inhibitor): 20%
residual protease activity (thrips protease activity; thrips pH 3.5, equistatin purified from sea anemone): 5%
inhibition of protease activity (thrips protease activity; thrips, pH 3.5): 95%
Oviposition rate, eggs per female per day (thrips females; 142 μM recombinant equistatin, pH 3, eggs counted on day 2): 0.3 eggs per female per day
Oviposition rate, relative percentage (thrips females; relative to BSA diet = 100%): 17%
